Data taken from patent US20260250325A1, “Antiviral Polypeptide Membrane Fusion Inhibitor, and Preparation Method and Application Thereof” (priority 2025, published 2026).
Where a SMILES comes first, the peptide text is derived from it. The star is where a group is joined. X1 = CC(C)CCCC(C)C1CCC2C3CC=C4CC(OC(=O)CCC(=O)*)CCC4(C)C3CCC12C

Tests used:
[1] = Cytotoxicity test in HEp-2 cells (CCK8 cell viability); type: cell-based; conditions: human; HEp-2 cells, CCK8, 1 day; read-out: CC50
Outline: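 Compound dilutions (final DMSO 0.5%) were applied for 1 day to HEp-2 cells plated at 30,000 per well the day before. CCK8 signal gave survival relative to cell and medium controls, and a four-parameter log(inhibitor)-response fit yielded CC50.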

[2] = tested on: RSV A long virus strain; type: cell-based; conditions: RSV A long virus strain, HEp-2 cells, plaque reduction, 1 day; read-out: IC50
Outline: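 Plaque reduction in HEp-2 cells: virus (100 PFU/well) and serially diluted compound (8 concentrations) mixed 1 h, adsorbed 2 h, then overlaid with 0.8% CMC medium plus compound for 1 day at 37 °C. Spots counted after anti-RSV immunostaining; IC50 from normalized inhibition, CC50 from viability data.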

[3] = target: hPIV-N51 (139-189) (human parainfluenza virus (hPIV))
hPIV-N51 (139-189) (human parainfluenza virus (hPIV)), sequence (P06828 139-189): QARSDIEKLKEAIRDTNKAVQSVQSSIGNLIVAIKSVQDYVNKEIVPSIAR

[4] = target: T1, F protein of RSV A long virus strain (respiratory syncytial virus, RSV A long virus strain), P12568; assay: cell-based or functional assay
T1 chain: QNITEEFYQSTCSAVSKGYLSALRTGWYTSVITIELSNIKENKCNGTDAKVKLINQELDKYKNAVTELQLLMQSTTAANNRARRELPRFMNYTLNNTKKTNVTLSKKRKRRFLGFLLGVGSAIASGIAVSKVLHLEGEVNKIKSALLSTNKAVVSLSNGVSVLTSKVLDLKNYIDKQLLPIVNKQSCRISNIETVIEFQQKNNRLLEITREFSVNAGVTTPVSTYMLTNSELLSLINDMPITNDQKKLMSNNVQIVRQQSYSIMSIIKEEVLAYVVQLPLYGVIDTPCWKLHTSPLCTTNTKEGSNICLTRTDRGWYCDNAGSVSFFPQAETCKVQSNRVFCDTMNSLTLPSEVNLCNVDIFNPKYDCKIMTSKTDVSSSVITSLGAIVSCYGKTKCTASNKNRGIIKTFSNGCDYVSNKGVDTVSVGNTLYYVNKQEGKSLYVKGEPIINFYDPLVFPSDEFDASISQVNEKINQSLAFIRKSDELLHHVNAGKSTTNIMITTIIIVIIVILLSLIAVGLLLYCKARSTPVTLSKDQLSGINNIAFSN

[5] = substrate: F protein of hPIV Type 3 (hPIV3 C243) (human parainfluenza virus type 3, strain C243); assay: cell-based or functional assay
[6] = substrate: F protein of hMPV virus strain B1 (human metapneumovirus, strain B1); assay: cell-based or functional assay
[7] = substrate: F protein of hMPV virus strain A2 (human metapneumovirus, strain A2); assay: cell-based or functional assay

Molecule: CC[C@H](C)[C@H](NC(=O)[C@H](Cc1ccccc1)NC(=O)[C@H](CCCCN)NC(=O)[C@H](CC(C)C)NC(=O)[C@H](CO)NC(=O)[C@H](CCC(N)=O)NC(=O)[C@H](CCC(=O)O)NC(=O)[C@@H](NC(=O)[C@H](CCCCN)NC(=O)[C@H](CCCCN)NC(=O)[C@H](CC(N)=O)NC(=O)[C@@H](NC(=O)[C@H](CCC(N)=O)NC(=O)[C@H](CCC(=O)O)NC(=O)[C@H](CC(C)C)NC(C)=O)C(C)C)[C@@H](C)CC)C(=O)N[C@@H](CCC(=O)O)C(=O)N[C@@H](CCCCN)C(=O)N[C@@H](CO)C(=O)N[C@@H](CC(=O)O)C(=O)N[C@@H](CCCCN)C(=O)N[C@@H](CC(C)C)C(=O)N[C@@H](CC(C)C)C(=O)N[C@@H](CCC(=O)O)C(=O)N[C@@H](CC(N)=O)C(=O)N[C@H](C(=O)N[C@@H](CC(N)=O)C(=O)N[C@@H](CCCCN)C(=O)NCC(=O)N[C@@H](CCCCN)C(=O)N[C@@H](CS)C(=O)N[C@@H](CCC(=O)O)C(=O)N[C@@H](C)C(=O)N[C@@H](C)C(=O)N[C@@H](C)C(=O)N[C@@H](CCCCN)C(=O)N[C@@H](CCCCNC(=O)CCC(=O)OC1CCC2(C)C(=CCC3C2CCC2(C)C(C(C)CCCC(C)C)CCC32)C1)C(N)=O)C(C)C (stereo partly shown) [Positive polypeptide 5, reference compound] (Ac-LEQVNKKIEQSLKFIEKSDKLLENVNKGKCEAAAKK(X1)-NH2)
- CC50 at 1 day [1]: 3.72 µM
- IC50 [2]: > 300 nM

B1: Compound 51 (peptide)
peptide: SDELVNKKIEFDKKINQSLKKIEESDKKKLEAAAKK
modifications: not checked
- Kd [3]: 0.0514 µM
- IC50/nM, Cell fusion inhibition activity (plaque reduction, RSV A long strain, HEp-2 cells) [4]: 9.9 nM
- EC50 (nM), plaque reduction, hPIV3 C243, LLC-MK2 cells [5]: 18.8 nM
- EC50 (nM), plaque reduction, hMPV B1, Vero cells [6]: 3.82 nM
- EC50 (nM), plaque reduction, hMPV A2, Vero cells [7]: 18.8 nM

B2: Compound 30 (peptide)
peptide: YDELVFDASQVNEKINQSLEKIRKSDELLHNVEAAAKK
modifications: not checked
- Kd [3]: 1.02 µM
- IC50/nM, Cell fusion inhibition activity (plaque reduction, RSV A long strain, HEp-2 cells) [4]: 14.9 nM
- EC50 (nM), plaque reduction, hPIV3 C243, LLC-MK2 cells [5]: 48.2 nM
- EC50 (nM), plaque reduction, hMPV B1, Vero cells [6]: 51.3 nM
- EC50 (nM), plaque reduction, hMPV A2, Vero cells [7]: 94.8 nM

B3: Compound 26 (peptide)
peptide: FDEEISQVNEKINQSLAFIRKSDELLHNVNAGKSTTEAAAKK
modifications: not checked
- Kd [3]: 2.58 µM
- IC50/nM, Cell fusion inhibition activity (plaque reduction, RSV A long strain, HEp-2 cells) [4]: 12.8 nM
- EC50 (nM), plaque reduction, hPIV3 C243, LLC-MK2 cells [5]: 1.35 nM
- EC50 (nM), plaque reduction, hMPV B1, Vero cells [6]: 2.85 nM
- EC50 (nM), plaque reduction, hMPV A2, Vero cells [7]: 103 nM

B4: Compound 28 (peptide)
peptide: DEFDASISQVNEKINQSLEEIRKSDELLHNEAAAKK
modifications: not checked
- Kd [3]: 983 µM
- IC50/nM, Cell fusion inhibition activity (plaque reduction, RSV A long strain, HEp-2 cells) [4]: 12.4 nM
- EC50 (nM), plaque reduction, hPIV3 C243, LLC-MK2 cells [5]: 54.4 nM
- EC50 (nM), plaque reduction, hMPV B1, Vero cells [6]: 13.8 nM
- EC50 (nM), plaque reduction, hMPV A2, Vero cells [7]: 58.6 nM

B5: Compound 45 (peptide)
peptide: WDEFDASISQVNEKINQSLEEIRKSDELLHNEAAAKK
modifications: not checked
- Kd [3]: 178 µM
- IC50/nM, Cell fusion inhibition activity (plaque reduction, RSV A long strain, HEp-2 cells) [4]: 12.2 nM
- EC50 (nM), plaque reduction, hPIV3 C243, LLC-MK2 cells [5]: 36.3 nM
- EC50 (nM), plaque reduction, hMPV B1, Vero cells [6]: 13.1 nM
- EC50 (nM), plaque reduction, hMPV A2, Vero cells [7]: 200 nM

B6: Compound 27 (peptide)
peptide: WDEFDASISQVNEKINQSLEEIRKSDELLHNVNAGLGSGSGK
modifications: not checked
- Kd [3]: 0.812 µM
- IC50/nM, Cell fusion inhibition activity (plaque reduction, RSV A long strain, HEp-2 cells) [4]: 25.7 nM
- EC50 (nM), plaque reduction, hPIV3 C243, LLC-MK2 cells [5]: 27.2 nM
- EC50 (nM), plaque reduction, hMPV B1, Vero cells [6]: 10.5 nM
- EC50 (nM), plaque reduction, hMPV A2, Vero cells [7]: 78.3 nM

B7: Compound 14 (peptide)
peptide: DEFDKKIEEVNKKIEESLKKIEESDKKLEEVNEAAAKK
modifications: not checked
- Kd [3]: 0.495 µM
- IC50/nM, Cell fusion inhibition activity (plaque reduction, RSV A long strain, HEp-2 cells) [4]: 9.9 nM
- EC50 (nM), plaque reduction, hPIV3 C243, LLC-MK2 cells [5]: 31.4 nM
- EC50 (nM), plaque reduction, hMPV B1, Vero cells [6]: 5.36 nM
- EC50 (nM), plaque reduction, hMPV A2, Vero cells [7]: 18.9 nM

B8: Compound 13 (peptide)
peptide: WDEFDKKIEEVNKKIEESLKKIEESDKKLEAAAKK
modifications: not checked
- Kd [3]: 2.28 µM
- IC50/nM, Cell fusion inhibition activity (plaque reduction, RSV A long strain, HEp-2 cells) [4]: 13 nM
- EC50 (nM), plaque reduction, hPIV3 C243, LLC-MK2 cells [5]: 35.6 nM
- EC50 (nM), plaque reduction, hMPV B1, Vero cells [6]: 6.18 nM
- EC50 (nM), plaque reduction, hMPV A2, Vero cells [7]: 11.7 nM

B9: Compound 16 (peptide)
peptide: SDEFDKKIEEVNKKIEESLKKIEESDKKLEAAAKK
modifications: not checked
- Kd [3]: 5.4 µM
- IC50/nM, Cell fusion inhibition activity (plaque reduction, RSV A long strain, HEp-2 cells) [4]: 10.3 nM
- EC50 (nM), plaque reduction, hPIV3 C243, LLC-MK2 cells [5]: 59 nM
- EC50 (nM), plaque reduction, hMPV B1, Vero cells [6]: 4.5 nM
- EC50 (nM), plaque reduction, hMPV A2, Vero cells [7]: 7.35 nM

B10: Compound 17 (peptide)
peptide: DEFDKKIEEVNKKIEESLKKIEESDKKLEAAAKK
modifications: not checked
- Kd [3]: 0.314 µM
- IC50/nM, Cell fusion inhibition activity (plaque reduction, RSV A long strain, HEp-2 cells) [4]: 17.6 nM
- EC50 (nM), plaque reduction, hPIV3 C243, LLC-MK2 cells [5]: 52.6 nM
- EC50 (nM), plaque reduction, hMPV B1, Vero cells [6]: 3.61 nM
- EC50 (nM), plaque reduction, hMPV A2, Vero cells [7]: 8.78 nM

B11: Compound 20 (peptide)
peptide: SDEFDKKIEEVNKKIEESLKKIEESDKKLGSGSGK
modifications: not checked
- Kd [3]: 6.8 µM
- IC50/nM, Cell fusion inhibition activity (plaque reduction, RSV A long strain, HEp-2 cells) [4]: 19.8 nM
- EC50 (nM), plaque reduction, hPIV3 C243, LLC-MK2 cells [5]: 59.5 nM
- EC50 (nM), plaque reduction, hMPV B1, Vero cells [6]: 4.27 nM
- EC50 (nM), plaque reduction, hMPV A2, Vero cells [7]: 7.47 nM

B12: Compound 29 (peptide)
peptide: LVKKIDEFDASISQVNEKINQSLEEIRKSDELLHNVGSGSGK
modifications: not checked
- Kd [3]: 1.73 µM
- IC50/nM, Cell fusion inhibition activity (plaque reduction, RSV A long strain, HEp-2 cells) [4]: 19.3 nM
- EC50 (nM), plaque reduction, hPIV3 C243, LLC-MK2 cells [5]: 26.3 nM
- EC50 (nM), plaque reduction, hMPV B1, Vero cells [6]: 11.1 nM
- EC50 (nM), plaque reduction, hMPV A2, Vero cells [7]: 41.6 nM

B13: Compound 22 (peptide)
peptide: DEFDKKKIEEVNKKIEESLKKIEESDKKLEEVEAAAKK
modifications: not checked
- Kd [3]: 20.8 µM
- IC50/nM, Cell fusion inhibition activity (plaque reduction, RSV A long strain, HEp-2 cells) [4]: 11.3 nM
- EC50 (nM), plaque reduction, hPIV3 C243, LLC-MK2 cells [5]: 65.4 nM
- EC50 (nM), plaque reduction, hMPV B1, Vero cells [6]: 18 nM
- EC50 (nM), plaque reduction, hMPV A2, Vero cells [7]: 88.4 nM

B14: Compound 25 (peptide)
peptide: YDELVFDASQVNEKINQSLEKIRKSDELLHNVGSGSGK
modifications: not checked
- Kd [3]: 74.5 µM
- IC50/nM, Cell fusion inhibition activity (plaque reduction, RSV A long strain, HEp-2 cells) [4]: 28.7 nM
- EC50 (nM), plaque reduction, hPIV3 C243, LLC-MK2 cells [5]: 29.4 nM
- EC50 (nM), plaque reduction, hMPV B1, Vero cells [6]: 38.1 nM
- EC50 (nM), plaque reduction, hMPV A2, Vero cells [7]: 86.4 nM

B15: Compound 44 (peptide)
peptide: WDEFDKKIEEVNKKIEESLKKIEESDKKLHNVEAAAKK
modifications: not checked
- Kd [3]: 6.86 µM
- IC50/nM, Cell fusion inhibition activity (plaque reduction, RSV A long strain, HEp-2 cells) [4]: 12.4 nM
- EC50 (nM), plaque reduction, hPIV3 C243, LLC-MK2 cells [5]: 27.9 nM
- EC50 (nM), plaque reduction, hMPV B1, Vero cells [6]: 6.6 nM
- EC50 (nM), plaque reduction, hMPV A2, Vero cells [7]: 14.6 nM

B16: Compound 38 (peptide)
peptide: WDEFDASISQVNEKINQSLEEIRKSDELLHNVNALEAAAKK
modifications: not checked
- Kd [3]: 24.5 µM
- IC50/nM, Cell fusion inhibition activity (plaque reduction, RSV A long strain, HEp-2 cells) [4]: 14.6 nM
- EC50 (nM), plaque reduction, hPIV3 C243, LLC-MK2 cells [5]: 26.4 nM
- EC50 (nM), plaque reduction, hMPV B1, Vero cells [6]: 16.6 nM
- EC50 (nM), plaque reduction, hMPV A2, Vero cells [7]: 128 nM
